Source: the DeepSol protein solubility set

Assay: soluble on expression in E. coli; label from the status in PepcDB or PDB records

Row | Sequence | soluble on expression in E. coli
1 | MSVLQRIVSRRTQLSESGRQIGDWVLANAAQAAAMTSQDLAAWANVSQSSIVKFTQRLGFKGYSEFKLALTEELGRKQVMVNQPLHSNILADDPVAVIAQKLVQTKTEAMFHTTNALRLDEFSEAISWIQQAVRVQIIGIGGSALVAKDLAFKLLKLGITALTEQDSHVQIATARTLHSQDVLIAISFSGEKREILIAAEAAKQQGAKVIALTTPNKNRLREIADLALDTIADETQHRSSAIASRTAQNVLTDLIFLTLTQQRETSARQLIDDISSDIRQMR | not soluble
2 | MSVNEADLNAVEEQLGRAPRGVLDISYRSPDGVPGVVMTAPKLDDGTPFPTLYYLTDPRLTTEASRLEVALVMKWMTDRLSTDEELRADYQRAHEHFLAKRNAIEDLGTDFSGGGMPDRVKCLHVLIAYALAEGPDHFRLGTEAVAMAAEHGDLRGTAIPEDWPTVQDLGINMEDFDFSRAGGA | not soluble
3 | MSVVPVADVLQGRVAVDSEVTVRGWVRTRRDSKAGISFLAVYDGSCFDPVQAVINNSLPNYNEDVLRLTTGCSVIVTGKVVASPGQGQQFEIQASKVEVAGWVEDPDTYPMAAKRHSIEYLREVAHLRPRTNLIGAVARVRHTLAQALHRFFNEQGFFWVSTPLITASDTEGAGEMFRVSTLDLENLPRNDQGKVDFDKDFFGKESFLTVSGQLNGETYACALSKIYTFGPTFRAENSNTSRHLAEFWMLEPEVAFANLNDIAGLAEAMLKYVFKAVLEERADDMKFFAERVDKDAVSRLERFIEADFAQVDYTDAVTILENCGRKFENPVYWGVDLSSEHERYLAEEHFKAPVVVKNYPKDIKAFYMRLNEDGKTVAAMDVLAPGIGEIIGGSQREERLDVLDERMLEMGLNKEDYWWYRDLRRYGTVPHSGFGLGFERLIAYVTGVQNVRDVIPFPRTPRNASF | soluble
4 | MSWWQRAVIYQVYPRSFQDTNGDGVGDLEGIRRRLPYLKSLGVDALWLSPFYKSPMKDFGYDVADYCDVDPVFGTLQDFDRLLEEAHALGLKVLVDLVPNHTSSEHPWFLESRASRNSPKRDWYIWKDPAPDGGPPNNWQSFFGGPAWTLDEATGQYYLHLFLPEQPDLNWRNPEVREAIKEVMRFWLRRGVDGFRVDVLWLLGKDPLFRDEPGSPLWRPGLPDRARHEHLYTEDQPETYAYVREMRQVLDEFSEPGRERVMVGEIYLPLPRLVRYYAAGCHLPFNFSLVTEGLSDWRPENLARIVETYEGLLSRWDWPNWVLGNHDQPRLASRLGEPQARVAAMLLFTLRGTPTWYYGDELALPNGLIPPEKVQDPAALRQRDREPTAYHTLGRDPERTPMPWDASPYGGFSTVEPWLPLNPDYRTRNVAAQEKDPRSMLHLVKRLIALRKDPDLLYGAYRTYRAREGVYAYLRGEGWLVALNLTEKEKALELPRGGRVVLSTHLDREERVGERLFLRPDEGVAVRLD | soluble
5 | MSYNGSYHQNHHSTLQVKSKFDSEWRRFSIPMHSASGVSYDGFRSLVEKLHHLESVQFTLCYNSTGGDLLPITNDDNLRKSFESARPLLRLLIQRRGESWEEKYGYGTDSDKRWKGISSLMAQKPPKRSYSISNPEDFRQVSAIIDVDIVPEAHRRVRLCKHGQERPLGFYIRDGTSVRVTERGVVKVSGIFISRLVDGGLAESTGLLGVNDEVLEVNGIEVLGKTLDQVTDMMVANAHNLIITVKPANQRNTLSRGPSQQGTPNASEMSAATAAATGGIQRPMKMNGSSDGSYHPKQHDANDSDSGED | not soluble
6 | MSYQSLLTHRCDIYHLQEKKENRKQKFGVPVEDVQPVFSYPDEPDIENQPCYFTEKSQSIIQQESNVSIYQSFLVHFPATADIRVNDRAVWDGTAYKLQKPRKIRNHHWEVTAVREVEYLLEHHHHHH | soluble
7 | MSYYHHHHHHLESTSLYKKAGLNNFNLHTPTRILFGKGAIAGLREQIPHDARVLITYGGGSVKKTGVLDQVLDALKGMDVLEFGGIEPNPAYETLMNAVKLVREQKVTFLLAVGGGSVLDGTKFIAAAANYPENIDPWHILQTGGKEIKSAIPMGCVLTLPATGSESNAGAVISRKTTGDKQAFHSAHVQPVFAVLDPVYTYTLPPRQVANGVVDAFVHTVEQYVTKPVDAKIHDRFAEGILLTLIEDGPKALKEPENYDVRANVMWAATQALNGLIGAGVPQDWATHMLGHELTAMHGLDHAQTLAIVLPALWNEKRDTKRAKLLQYAERVWNITEGSDDERIDAAIAATRNFFEQLGVPTHLSDYGLDGSSIPALLKKLEEHGMTQLGENHDITLDVSRRIYEAAR | soluble
8 | MSYYHHHHHHLESTSLYKKAGMSDFYDPRERDPSVSRRPQNRQSDEWIRELLLRGTIARVATLWQGEDGAAFPFITPLAYAYRPEQGDLVYHTNVVGRLRANAGQGHPATLEVSEIGQFLPSNSPLELSVQYRSVMVFGTARVLAGEDARAALTTLSERVFPGLKVGETTRPISEDDLKRTSVYSLSIDRWSGKENWAEQAIQEEDWPALGPEWLG | soluble
9 | MSYYHHHHHHNYNIPTTENLYFQGAMVAPAGEQGRSSTALSDNPFDAKAWRLVDGFDDLTDITYHRHVDDATVRVAFNRPEVRNAFRPHTVDELYRVLDHARMSPDVGVVLLTGNGPSPKDGGWAFCSGGDQRIRGRSGYQYASGDTADTVDVARAGRLHILEVQRLIRFMPKVVICLVNGWAAGGGHSLHVVCDLTLASREYARFKQTDADVGSFDGGYGSAYLARQVGQKFAREIFFLGRTYTAEQMHQMGAVNAVAEHAELETVGLQWAAEINAKSPQAQRMLKFAFNLLDDGLVGQQLFAGEATRLAYMTDEAVEGRDAFLQKRPPDWSPFPRYF | soluble
10 | MTAKQFRHGGENLAVRYALADCELGRCLVAESERGICAILLGDDDATLISELQQMFPAADNAPADLMFQQHVREVIASLNQRDTPLTLPLDIRGTAFQQQVWQALRTIPCGETVSYQQLANAIGKPKAVRAVASACAANKLAIVIPCHRVVRGDGSLSGYRWGVSRKAQLLRREAENEER | soluble
11 | MTAPFFPRILGAVAFLNQETEPLTMNLQHHFLIAMPALQDPIFRRSVVYICEHNTNGAMGIIVNKPLENLKIEGILEKLKITPEPRDESIRLDKPVMLGGPLAEDRGFILHTPPSNFASSIRISDNTVMTTSRDVLETLGTDKQPSDVLVALGYASWEKGQLEQEILDNAWLTAPADLNILFKTPIADRWREAAKLIGVDILTMPGVAGHALEHHHHHH | not soluble
12 | MTAPSQVLKIRRPDDWHVHLRDGDMLKTVVPYTSEIYGRAIVMPNLASPITTVDAAIAYRQRILDAVPAGHDFTPLMTCYLTDSLDADELERGFHEGVFTAAKLYPANATTNSSHGVTSVDAIMPVLERMEKLGIPLLVHGEVTHADVDIFDREARFIDTVMEPLRQRLTALKVVFEHITTKDAAQYVRDGNDYLAATITPQHLMFNRNDMLVGGIRPHLYCLPILKRNIHQQALRELVASGFTRAFLGTDSAPHSRHRKETSCGCAGCFNAPSALGSYAAVFEEMNALAHFEAFCSLNGPQFYGLPMNTGWVELVRDEQQIPGNIALADDSLVPFLAGETVRWSVKK | not soluble
13 | MTARDYIWNADGEVGGINDKLRGCLVFSYDRSGWLTSRTGQMYDHDHYYYDKAGNLLTDEYQGAVMDNRLPGYGRDRYRYNEWGELTERRDQQLEWNAQGQLTRVISSNSETRYQYDALGRRISKATSNLHTDRGERSRTTFVWEGFRLLQETTWQGKRTYLYDAEQPYTPVAAITGRGESQKIWYYHTDLTGTVHEVTAPDGTLVWAGYQAGFGENRGDISNSGAYFEQPQRLPGQYFDEETGLHYNLFRYYAPECGRFVSQDPIGLNGGLNLYAYAPNPLGWIDPLGLNSLGIDSNNIFRGDGNYKGGGIGQPKSGTISAQDIIDHLLEHHHHHH | not soluble
14 | MTARNPLEAQAWALLEAVYDPELGLDVVNLGLIYDLVVEPPRAYVRMTLTTPGCPLHDSLGEAVRQALSRLPGVEEVEVEVTFEPPWTLARLSEKARRLLGWG | soluble
15 | MTASERVVVKELSSSLLDMKFMLKKKKQIETKAAKKKEAKLDQLITEKEAEATCSTEILKSSEPKLEICYDYAKLENLKFGRLSFGGFNKEVELLMEYYEKLQNGMLSDSDDDGMDVDDEEMAKSLGGQKLAALDKKSQSKRERRQQNERNEETTGGRRFNIKDIRKRFAADDVADAPERKFMKPAEDC | not soluble
16 | MTASHGQAAAIPTVTLNDDNTLPVVGIGVGELSDSEAERSVSAALEAGYRLIDTAAAYGNEAAVGRAIAASGIPRDEIYVTTKLATPDQGFTSSQAAARASLERLGLDYVDLYLIHWPGGDTSKYVDSWGGLMKVKEDGIARSIGVCNFGAEDLETIVSLTYFTPAVNQIELHPLLNQAALREVNAGYNIVTEAYGPLGVGRLLDHPAVTAIAEAHGRTAAQVLLRWSIQLGNVVISRSANPERIASNLDVFGFELTADEMETLNGLDDGTRFRPDPATYTGS | soluble
17 | MTATSSPTTRFTDRVVLITGGGSGLGRATAVRLAAEGAKLSLVDVSSEGLEASKAAVLETAPDAEVLTTVADVSDEAQVEAYVTATTERFGRIDGFFNNAGIEGKQNPTESFTAAEFDKVVSINLRGVFLGLEKVLKIMREQGSGMVVNTASVGGIRGIGNQSGYAAAKHGVVGLTRNSAVEYGRYGIRINAIAPGAIWTPMVENSMKQLDPENPRKAAEEFIQVNPSKRYGEAPEIAAVVAFLLSDDASYVNATVVPIDGGQSAAY | soluble
18 | MTATTNESQEIAMTATTADEIPASTEQNLRIVQRVIFPANRDLDTLPLYVDPDTNKLHTSGGGADVQAIGMARKLHPEDILNRGSVQVRRGERLSFGSYFNAFPASYWRKWTIATKTVLHIETEGEGTVIVYRSNARGASQRVDSILVEGPSTNEFELTLAPFGDGGWYWFDLIAGGDGMTLKSAHWAVPDEGRPQGRVTLGVTTFNRADYCLETIKSIDGDAGLREILAELIIVDQGNKKVADQAGFDAVAESMGDQLRIINQGNLGGSGGFARNMYEMVVSDKSDYVMLLDDDIELETEGVMRAVAFADLCRKPTIVGGHMFDMYNKSVLHAYSEVVNFYRFLWGPVEGLGNHDFSTAGLRSTPQLHRRWDADYNGWWMCLIPKTVVETIGLSLPVFIKWDDAEYSLRGRAAGFPTVTLPGAAVWHVSWADKDDSVDWQAYYHERNRLIATLLHSPFPKGGRILRESLNTDVKHLVSMQYYPEQARVMALRDVLAGPDNLHKQLPTTMPKLRAMREEFPDSQVKTDPAAFPEVFRKRPPKKPQSFKQPGALGLLPWAVKTVLKQTLAPVRGTAKAAPEAHVAHQDGKWWSLAHLDSAVVSNADGTGASWHLRNPKMARQLVVESAKLHAQLFSNWETLRAQYREALPEITSMESWRETFEASEPSK | not soluble
19 | MTAVRRIRAAALPDLPDASWSNALLVGEELVMSGMTAHPATRQAAERGAALDAHAQALVVLGKVKALLEAAGGHVGNLYKLNVYVTRIADKDAIGRARQEFFAGQGTFPASTLVEVSGLVFPELLVEIDAWARLDIDLANCDEA | soluble
20 | MTAVTAGKLIGVGVGPGDPELLTVKAVKAIKSADVIVFHAKPNGQSAAHRIAESYIRQDQVLELLEYPVTTGVTEHPGGYAGAMAAFYASVGERLRDHLIEGKNVVVLALGDPMLYSSYQHIHRLLSEDFNAEIIPGIPSITSAADVLGKPLCEDDDVLTILPGTLPHSELVARLSDSDGAVVMKLGRTFDKVRKAMIEAGVADRAHVVVRVGMADQHSVPVMEADPQAIPYFSVAVVPSITDTNGDSGDKQQGEVVVVGLGPGGHRWTTPEVMAELKQATDIVGYSTYVNRVPQQAGQRRHLSDNKVEAERAAMALDMAKQGRKVAVVSSGDPGVFAMAAAVLETADDDQWREVPVRIIPGMTAAQAVASRVGAPLGHDFGMISLSNRLKPFEIVEKRIRALASADMAFACYNPASKERRWQVARMKEIVSEYQAGSTPVIVARAVGSDQETVTVTTLEDFDPDIVDMRTMVIIGASTTKTYQGGDGVRVFTSRWYT | not soluble
21 | MTDKSKTEKLISSDDKQSVIDGILDMVFNSKAYEVPWISEKLMELSKNKDLDIAGLSLTCFGHLARLHSNIGDYDKVIPLLHSKQDDPELQGRAEDALEDISLFLSENH | not soluble
